Patent publication US20220305056A1 (Janssen / Centocor, published 2022)
Ends that are not written are not given here.

Tests used:
[1] = molecular target: T1, cell-surface scFv with a G4S linker (CAR-T construct on transfected HEK293T cells); assay: flow cytometry on HEK293T cells transfected with CAR-T constructs, fluorescent anti-human Fc detection
T1 construct: also called cell surface antigen; linker containing scFv protein construct
Protocol: HEK293-T cells were cultured in standard DMEM with (Dulbecco's Modified Eagle's Medium Components comprising glucose, L-glutamine, NaHCO₃, and phenol red). Transfection of cells with mRNA for linker containing scFv protein constructs was carried out following manufacturer's protocol (MessengerMax, Invitrogen). 5 μg of IVT synthesized mRNA was transfected in HEK293-T cells at a density of 1×10⁶ cells/mL and incubated 24 hours prior to flow cytometry analysis. Cells were added to 96 well U bottom plates at a concentration of 100,000 cells/well. Plates were spun at 300 g for 3 minutes and supernatant was discarded. Sytox green (Invitrogen) Live/Dead stain was added to the cells and incubated for 10 minutes at room temperature in a dark chamber. The cells were washed twice with PBS, and the supernatant was discarded. A 12 point 1:3 serial dilution with a starting concentration of 100 nM of primary antibody was prepared. The dilution series was added to cells and incubated for 1 hour at 4° C. in the dark. Plates were spun at 300 g for 3 minutes, the supernatants discarded, and cells washed twice with FACS running buffer (Becton Dickinson (BD), Franklin Lakes, N.J.). Secondary antibody (Anti human Fc, Biolegend; San Diego, Calif.) was diluted in FACS buffer according to manufacturer's protocol. 50 μl of secondary antibody was added to the cells and incubated for 30 minutes at 4° C. in the dark. […]

[2] = molecular target: T2, H3-23/L1-39 scFv with (G4S)4 peptide linker; assay: bio-layer interferometry
T2 construct: also called inert scFv

[3] = molecular target: T3, SEQ ID NO 46 (also: biotinylated); assay: bio-layer interferometry, truncated peptide panel
T3 construct: Truncation variant of the (G4S)4 linker; also called truncated G4S peptide
T3 peptide: GGGGSGGGGSGGGGSGGGG
Protocol: (§1) All reactions were performed at 25° C. in 1× kinetics buffer (ForteBio; Fremont, Calif.). Data were collected with Octet Data Acquisition program (ForteBio) and analyzed using Octet Data Analysis program (ForteBio).

[4] = molecular target: T4, SEQ ID NO 52 (also: biotinylated); assay: bio-layer interferometry, truncated peptide panel
T4 construct: Truncation variant of the (G4S)4 linker; also called truncated G4S peptide
T4 peptide: GGGGSGGGGSGGG
Protocol: as §1

[5] = molecular target: T5, SEQ ID NO 53 (not fully specified; also: biotinylated); assay: bio-layer interferometry, truncated peptide panel
T5 construct: Truncation variant of the (G4S)4 linker; also called truncated G4S peptide
T5 peptide: GGGGSGGGGSGG
Protocol: as §1

[6] = molecular target: T6, SEQ ID NO 49 (also: biotinylated); assay: bio-layer interferometry, truncated peptide panel
T6 construct: Truncation variant of the (G4S)4 linker; also called truncated G4S peptide
T6 peptide: GGGGSGGGGSGGGGSG
Protocol: as §1

[7] = molecular target: T7, SEQ ID NO 48 (also: biotinylated); assay: bio-layer interferometry, truncated peptide panel
T7 construct: Truncation variant of the (G4S)4 linker; also called truncated G4S peptide
T7 peptide: GGGGSGGGGSGGGGSGG
Protocol: as §1

[8] = molecular target: T8, 10-mer peptide (SEQ ID NO:55) (also: biotinylated); assay: bio-layer interferometry, truncated peptide panel
T8 construct: Truncation variant of the (G4S)4 linker; smallest linker detected by CEN-63-13; also called smallest linker
T8 peptide: GGGGSGGGGS
Protocol: as §1

[9] = molecular target: T9, SEQ ID NO 51 (also: biotinylated); assay: bio-layer interferometry, truncated peptide panel
T9 construct: Truncation variant of the (G4S)4 linker; also called truncated G4S peptide
T9 peptide: GGGGSGGGGSGGGG
Protocol: as §1

[10] = molecular target: T10, SEQ ID NO 50 (not fully specified; also: biotinylated); assay: bio-layer interferometry, truncated peptide panel
T10 construct: Truncation variant of the (G4S)4 linker; also called truncated G4S peptide; L6
T10 peptide: GGGGSGGGGSGGGGS
Protocol: as §1

[11] = molecular target: T11, SEQ ID NO 47 (also: biotinylated); assay: bio-layer interferometry, truncated peptide panel
T11 construct: Truncation variant of the (G4S)4 linker; also called truncated G4S peptide
T11 peptide: GGGGSGGGGSGGGGSGGG
Protocol: as §1

[12] = molecular target: T12, (G4S)4 peptide (biotinylated); assay: bio-layer interferometry, biotinylated peptide on streptavidin sensor
T12 construct: Biotinylated peptide immobilised on streptavidin biosensors for BLI; also called WT (G4S)4 peptide linker; WT G4S linker
T12 peptide: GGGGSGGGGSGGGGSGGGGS
Protocol: as §1

[13] = molecular target: T13, immobilized scFv containing a G4S linker; assay: ELISA, scFv coated on the plate, anti-human Fc HRP detection
T13 construct: Antigen coated on the ELISA plate at 0.1 ug/mL
Protocol: MaxiSorb 96 plates (Nunc; Roskilde, Denmark) were coated with antigen at 0.1 μg/mL concentration and incubated overnight at 4° C. Plates were washed 3 times with PBS and blocked with PBS plus 5% milk powder for 1 hour at room temperature. Plates were washed 3 times with PBS. […] Plates were washed 3 times with PBS. […] Optical density at 450 nm was measured on (SpectraMax M5, Molecular Devices; San Jose, Calif.). Data was analyzed in GraphPad Prism software (Graphpad).

[14] = molecular target: T13, immobilized scFv containing a G4S linker; assay: ELISA and flow cytometry (FIGS. 2 and 3)
Protocol: Plates were washed 3 times with PBS. […] Plates were washed 3 times with PBS. […] Optical density at 450 nm was measured on (SpectraMax M5, Molecular Devices; San Jose, Calif.). Data was analyzed in GraphPad Prism software (Graphpad).
HEK293-T cells were cultured in standard DMEM with (Dulbecco's Modified Eagle's Medium Components comprising glucose, L-glutamine, NaHCO₃, and phenol red). Transfection of cells with mRNA for linker containing scFv protein constructs was carried out following manufacturer's protocol (MessengerMax, Invitrogen). 5 μg of IVT synthesized mRNA was transfected in HEK293-T cells at a density of 1×10⁶ cells/mL and incubated 24 hours prior to flow cytometry analysis. Cells were added to 96 well U bottom plates at a concentration of 100,000 cells/well. Plates were spun at 300 g for 3 minutes and supernatant was discarded. Sytox green (Invitrogen) Live/Dead stain was added to the cells and incubated for 10 minutes at room temperature in a dark chamber. The cells were washed twice with PBS, and the supernatant was discarded. A 12 point 1:3 serial dilution with a starting concentration of 100 nM of primary antibody was prepared. The dilution series was added to cells and incubated for 1 hour at 4° C. in the dark. Plates were spun at 300 g for 3 minutes, the supernatants discarded, and cells washed twice with FACS running buffer (Becton Dickinson (BD), Franklin Lakes, N.J.). […]

B1: CEN-63-13 mAb (antibody, human IgG1, V domains shown)
VH: QSVKESGGRLVTPGTPLTLTCTVSGFSLSSNAIDWVRQAPGKGLEWIGILGRSGSTYYASWAKGRFTISRTSSTTVDLKITSPTTEDTATYFCARHFYLWGPGTLVTVSS
VL: AQVLTQTASPVSAAVGGTVTINCQASQSVYSNYLSWYQQKPGQPPKLLMATTSTLEPGVPSRFKGSGSGTQFTLTISDLECDDAATYYCAGGYSVDIWVFGGGTEVVVKR
notes: also called CEN-63 C13; CEN-63 C13 anti-G4S antibody
[1]
  EC50: 0.78 nM
[2]
  Kd: 8.1 nM
[3]
  fold decrease in binding affinity compared to WT G4S linker: 2 fold
[4]
  fold decrease in binding affinity compared to WT G4S linker: 2 fold
[5]
  fold decrease in binding affinity compared to WT G4S linker: 2 fold
[6]
  fold decrease in binding affinity compared to WT G4S linker: 2 fold
[7]
  fold decrease in binding affinity compared to WT G4S linker: 2 fold
[8]
  fold decrease in binding affinity compared to WT G4S linker: 6 fold
[9]
  fold decrease in binding affinity compared to WT G4S linker: 2 fold
[10]
  fold decrease in binding affinity compared to WT G4S linker: 2 fold
[11]
  fold decrease in binding affinity compared to WT G4S linker: 2 fold
[12]
  Kd: 3.6 nM
[13]
  EC50: 0.57 nM
[14]
  Kd: 0.57 nM
